Source: US11510992 (dated 2022)

B1: murine Fcγ RIIb (receptor, mouse, UniProt P08101 30-210, looked up)
chain: THDLPKAVVKLEPPWIQVLKEDTVTLTCEGTHNPGNSSTQWFHNGRSIRSQVQASYTFKATVNDSGEYRCQMEQTRLSDPVDLGVISDWLLLQTPQLVFLEGETITLRCHSWRNKLLNRISFFHNEKSVRYHHYSSNFSIPKANHSHSGDYYCKGSLGRTLHQSKPVTITVQGPKSSRSLP
notes: also called mouse FcγR2B/CD32b
B2: human Fcγ RIIb (receptor, UniProt P31994 43-217, looked up)
chain: TPAAPPKAVLKLEPQWINVLQEDSVTLTCRGTHSPESDSIQWFHNGNLIPTHTQPSYRFKANNNDSGEYTCQTGQTSLSDPVHLTVLSEWLVLQTPHLEFQEGETIVLRCHSWKDKPLVKVTFFQNGKSKKFSRSDPNFSIPQANHSHSGDYHCTGNIGYTLYSSKPVTITVQAP

Target: Conjugate 45b (human, UniProt P0DOX5 203-448 = IgG part)
Test: ELISA

Binder | binding result
B1 | binds
B2 | binds
